Among the data in patent US6639060 are soft agar colonies/10^4 cells, + EGF 20 ng/ml (- EGF: 97) (colonies/10^4 cells) values, retold here.

This assay has as its target human erbB-3 protein, gp180^erbB-3 (human) (UniProt P21860). The experiment in a line: cell-based or functional assay.
UniProt P21860, sequence (P21860 20-1342): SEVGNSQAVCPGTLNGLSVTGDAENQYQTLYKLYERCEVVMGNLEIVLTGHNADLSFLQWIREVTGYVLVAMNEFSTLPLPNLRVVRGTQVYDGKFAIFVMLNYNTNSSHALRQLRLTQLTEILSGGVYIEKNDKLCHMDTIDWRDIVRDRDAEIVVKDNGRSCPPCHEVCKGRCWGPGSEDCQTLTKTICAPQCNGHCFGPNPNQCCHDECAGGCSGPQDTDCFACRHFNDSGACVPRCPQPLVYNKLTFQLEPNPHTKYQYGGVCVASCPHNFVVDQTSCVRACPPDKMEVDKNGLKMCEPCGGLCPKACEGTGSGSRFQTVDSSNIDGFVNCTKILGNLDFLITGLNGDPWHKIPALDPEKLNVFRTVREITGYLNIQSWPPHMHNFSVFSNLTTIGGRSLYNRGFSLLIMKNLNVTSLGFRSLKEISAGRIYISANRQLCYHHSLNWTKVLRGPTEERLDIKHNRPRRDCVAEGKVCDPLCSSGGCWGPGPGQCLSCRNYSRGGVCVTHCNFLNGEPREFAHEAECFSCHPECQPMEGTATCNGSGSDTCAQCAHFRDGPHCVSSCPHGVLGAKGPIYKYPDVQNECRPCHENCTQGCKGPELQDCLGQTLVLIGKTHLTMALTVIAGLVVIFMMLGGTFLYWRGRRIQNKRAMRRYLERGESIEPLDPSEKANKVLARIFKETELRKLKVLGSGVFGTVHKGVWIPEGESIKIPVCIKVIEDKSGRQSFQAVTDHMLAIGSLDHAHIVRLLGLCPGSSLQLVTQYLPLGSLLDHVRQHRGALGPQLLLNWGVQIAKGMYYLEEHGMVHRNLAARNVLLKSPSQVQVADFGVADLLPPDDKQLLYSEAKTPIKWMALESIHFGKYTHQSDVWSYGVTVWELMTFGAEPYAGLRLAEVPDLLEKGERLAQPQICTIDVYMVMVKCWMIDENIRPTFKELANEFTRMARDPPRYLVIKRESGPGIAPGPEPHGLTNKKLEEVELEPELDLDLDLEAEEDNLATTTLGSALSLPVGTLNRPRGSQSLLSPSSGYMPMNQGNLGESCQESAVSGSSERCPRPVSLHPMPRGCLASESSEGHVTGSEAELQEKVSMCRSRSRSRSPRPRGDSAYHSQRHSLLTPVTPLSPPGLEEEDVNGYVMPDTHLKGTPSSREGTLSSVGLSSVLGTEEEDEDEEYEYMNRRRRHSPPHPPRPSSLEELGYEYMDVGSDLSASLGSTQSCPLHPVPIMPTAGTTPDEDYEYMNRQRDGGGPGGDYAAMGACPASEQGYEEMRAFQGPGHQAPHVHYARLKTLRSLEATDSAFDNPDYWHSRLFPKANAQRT

For EGF (epidermal growth factor) (ligand), the soft agar colonies/10^4 cells, + EGF 20 ng/ml (- EGF: 97) (colonies/10^4 cells) stood at 94.
